The values below come from patent US20240199762A1 (PHILOGEN S P A, published 2024).

The target of assay [1] is T1, human FAP expressed on transduced cells (SKRC52-hFAP, HT-1080-hFAP) (human, UniProt Q12884 1-760).
T1 construct: whole, on cells; Also the target in SKRC52-hFAP tumor cryosections and in tumors of tumor-bearing mice; also called cell-expressed human FAP
T1 sequence (looked up): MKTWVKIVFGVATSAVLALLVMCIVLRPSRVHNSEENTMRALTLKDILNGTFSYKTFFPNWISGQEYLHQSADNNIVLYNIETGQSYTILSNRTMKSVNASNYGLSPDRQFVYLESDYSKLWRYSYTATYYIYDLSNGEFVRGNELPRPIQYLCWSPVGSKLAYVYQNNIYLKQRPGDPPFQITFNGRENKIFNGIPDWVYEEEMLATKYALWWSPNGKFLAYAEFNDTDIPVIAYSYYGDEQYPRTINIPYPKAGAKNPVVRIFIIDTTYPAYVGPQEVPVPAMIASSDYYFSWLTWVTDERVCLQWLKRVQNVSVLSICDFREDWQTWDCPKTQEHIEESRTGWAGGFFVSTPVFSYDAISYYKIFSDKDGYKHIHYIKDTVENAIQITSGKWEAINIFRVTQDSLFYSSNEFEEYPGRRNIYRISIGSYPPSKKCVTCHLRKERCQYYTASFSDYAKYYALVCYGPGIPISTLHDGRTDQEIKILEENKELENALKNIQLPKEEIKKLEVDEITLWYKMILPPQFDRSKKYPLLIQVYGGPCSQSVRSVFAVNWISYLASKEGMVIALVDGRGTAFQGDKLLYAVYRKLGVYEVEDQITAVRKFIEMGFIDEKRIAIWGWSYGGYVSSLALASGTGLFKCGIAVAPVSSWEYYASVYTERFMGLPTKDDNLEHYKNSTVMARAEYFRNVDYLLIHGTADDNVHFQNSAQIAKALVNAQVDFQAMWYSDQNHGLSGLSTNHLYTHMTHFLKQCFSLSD
As to the kind of experiment: immunofluorescence on SKRC52-hFAP tumor cryosections, FITC conjugate. The protocol:
Immunofluorescence experiments were performed with 7NP2 and KSF (negative control), both in IgG1 format on cryosections of renal cell carcinoma SKRC52-hFAP tumor tissue slides, which were transduced to express human FAP. The 7NP2 and KSF IgG1 molecules were conjugated to FITC to allow detection. Cryostat sections (10 μm) were stained using the 7NP2 and KSF IgG1 conjugates at a final concentration of 10 μg/mL and detected with rabbit anti-FITC and goat anti-rabbit AlexaFluor488 antibody. Slides were mounted with fluorescent mounting medium and analyzed with a microscope (FIG. 5).

The target in assay [2] is T2, human FAP-ECD (extracellular domain) recombinant fragment containing a C-terminal His6 tag (human, UniProt Q12884 26-760, randomly biotinylated with NHS ester-activated biotin (as used on the SA chip and Streptawell plates)).
T2 construct: also called biotinylated human FAP-ECD; biotinylated human FAP
T2 sequence: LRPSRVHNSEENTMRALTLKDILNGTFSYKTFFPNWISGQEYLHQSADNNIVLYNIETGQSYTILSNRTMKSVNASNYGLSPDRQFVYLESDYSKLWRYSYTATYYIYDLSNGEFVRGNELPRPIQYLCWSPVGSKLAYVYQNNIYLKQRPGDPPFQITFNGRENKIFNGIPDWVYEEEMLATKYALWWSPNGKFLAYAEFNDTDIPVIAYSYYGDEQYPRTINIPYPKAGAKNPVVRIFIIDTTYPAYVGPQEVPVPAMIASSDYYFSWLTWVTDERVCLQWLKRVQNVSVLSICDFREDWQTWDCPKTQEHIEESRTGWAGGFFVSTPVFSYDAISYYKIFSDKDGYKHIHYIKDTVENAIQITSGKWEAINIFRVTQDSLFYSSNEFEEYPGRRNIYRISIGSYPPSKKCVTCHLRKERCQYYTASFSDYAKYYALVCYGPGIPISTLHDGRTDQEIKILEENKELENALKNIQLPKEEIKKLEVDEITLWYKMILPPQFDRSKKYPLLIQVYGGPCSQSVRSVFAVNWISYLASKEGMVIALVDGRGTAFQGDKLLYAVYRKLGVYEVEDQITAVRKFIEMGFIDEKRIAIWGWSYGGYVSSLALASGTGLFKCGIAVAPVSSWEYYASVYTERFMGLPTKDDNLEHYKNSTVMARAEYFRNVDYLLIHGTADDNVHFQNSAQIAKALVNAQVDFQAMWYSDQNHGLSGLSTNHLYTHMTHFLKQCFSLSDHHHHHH
As to the kind of experiment: epitope ELISA on biotinylated human FAP on Streptawell plates. How it is done: (§1) To evaluate binding, 100 nM of biotinylated human FAP were coated on Streptawell plates for 30 min at 37° C.
(§2) The C5 antibody in IgG2a format was incubated together with the 7NP2 antibody in IgG1 format, the F5 antibody in IgG1 format (WO2016/116399), the ESC11 antibody in IgG1 format (Fisher et al., (2012) Clin Cancer Res; 18(22)), or the (negative control) antibody KSF in IgG1 format for 1.5 h at room temperature at a concentration of 5 μg/mL in the antigen-coated wells. After 3 washes with PBS, binding of the antibodies to human FAP was detected using anti-human or anti-murine HRP conjugates (FIG. 7).

Assay [3] has as its target T2, human FAP-ECD (extracellular domain) …. As to the kind of experiment: epitope ELISA on biotinylated human FAP, co-incubated with C5 IgG2a, 5 ug/mL. The protocol:
as §1, §2
Background: In an ELISA, binding on a coated surface is turned into a signal by an enzyme label.

B1: anti-hen egg lysozyme antibody KSF in IgG1 format (antibody, V domains shown)
VH: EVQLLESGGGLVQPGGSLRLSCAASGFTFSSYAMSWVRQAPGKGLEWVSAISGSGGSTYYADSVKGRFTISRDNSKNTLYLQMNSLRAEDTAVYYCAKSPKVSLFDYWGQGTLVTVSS
VL: SSELTQDPAVSVALGQTVRITCQGDSLRSYYASWYQQKPGQAPVLVIYGKNNRPSGIPDRFSGSSSGNTASLTITGAQAEDEADYYCQSSPLNRLAVVFGGGTKLTVLG
notes: Negative control; It was conjugated to FITC in the immunofluorescence and ex vivo experiments; also called KSF IgG1; KSF(IgG1)
In the case of B1, the binding result in assay [1] is “no binding (tested: 10 µg/mL)”; in assay [2], “no binding (tested: 5 µg/mL)”.

B2: anti-FAP antibody 7NP2 in IgG1 format (antibody, V domains shown)
VH: EVQLLESGGGLVQPGGSLRLSCAASGFTFSSYAMSWVRQAPGKGLEWVSAIGSVGGPTYYADSVKGRFTISRDNSKNTLYLQMNSLRAEDTAVYYCAKRLAWFDYWGQGTLVTVSS
VL: EIVLTQSPGTLSLSPGERATLSCRASQSVSSSYLAWYQQKPGQAPRLLIYGASSRATGIPDRFSGSGSGTDFTLTISRLEPEDFAVYYCQQSGKGPLTFGQGTKVEIKR
notes: also called 7NP2 IgG1; 7NP2(IgG1)
Consider B2, for which the binding result in assay [3] is on record as “binds”.
